Measurements published in patent US7098001B2, “Polypeptides having dipeptidyl aminopeptidase activity and nucleic acids encoding same” (Novozymes, Inc., priority 1997, dated 2006).

Experiments:
[1] = temperature stability of dipeptidyl aminopeptidase I; type: physicochemical; conditions: for Percent activity relative to 37iC.: 20 minutes, pH 7.5, no substrate, assayed with Ala-Pro-pNA
Protocol: The temperature stability of the dipeptidyl aminopeptidase I was determined using the following protocol: 490 μl of 50 mM sodium phosphate buffer pH 7.5 was preincubated at 37 ? , 45 ? , 55 ? , 60 ? , 65 ? , 70 ? , and 75 ? C for 30 minutes in a 1.7 ml Eppendorf tube. Then 10 μl of purified dipeptidyl aminopeptidase I was added and the sample was then incubated for an additional 20 minutes. The samples were then placed on ice. Once the incubations were completed for all the temperatures, the samples were then assayed for activity using Ala-Pro-pNA as substrate.
The assay was performed by mixing 30 μl of the incubation mixtures for the various temperatures with 200 μl of 2 mg/ml Ala-Pro-pNA in 50 mM sodium phosphate pH 7.5 buffer) at ambient temperature. The absorbance at 405 nm was monitored for 5 minutes.

[2] = pH optimum / pH-activity profile of dipeptidyl aminopeptidase I with Ala-Pro-pNA; type: biochemical; conditions: for Average Activty: 2 mg/ml Ala-Pro-pNA, ambient temperature, 5 minutes; for Avg. Activity-Background: corrected for autohydrolysis of Ala-Pro-pNA
Protocol: The Ala-Pro-pNA substrate was prepared by dissolving 100 mg of Ala-Pro-pNA in 1 ml of DMSO and adding 20 μl of the Ala-Pro-pNA-DMSO solution to 980 μl of the universal buffer at the various pH values at ambient temperature. The assay was initiated by adding a 10 μl aliquot of the dipeptidyl aminopeptidase I diluted 20-fold in water to 200 μl of 2 mg/ml Ala-Pro-pNA at the various pH values. The absorbance at 405 nm was monitored for 5 minutes. Autohydrolysis of the substrate as a control was determined by adding 10 μl of water to 200 μl of 2 mg/ml Ala-Pro-pNA at the various pH values.

B1: dipeptidyl aminopeptidase I: Recombinant Aspergillus oryzae 1568 (ATCC 20386) dipeptidyl aminopeptidase I, 771 amino acids (SEQ ID NO:2), produced in Fusarium and purified (protein, listed as Aspergillus oryzae)
chain: MKYSKLLLLLVSVVQALDVPRKPHAPTGEGSKRLTFNETVVKQAITPTSRSVQWLSGAEDGSYVYAAEDGSLTIENIVTNESRTLIPADKIPTGKEAFNYWIHPDLSSVLWASNHTKQYRHSFFADYYVQDVESLKSVPLMPDQEGDIQYAQWSPVGNTIAFVRENDLYVWDNGTVTRITDDGGPDMFHGVPDWIYEEEILGDRYALWFSPDGEYLAYLSFNETGVPTYTVQYYMDNQEIAPAYPWELKIRYPKVSQTNPTVTLSLLNIASKEVKQAPIDAFESTDLIIGEVAWLTDTHTTVAAKAFNRVQDQQKVVAVDTASNKATVISDRDGTDGWLDNLLSMKYIGPIKPSDKDAYYIDISDHSGWAHLYLFPVSGGEPIPLTKGDWEVTSILSIDQERQLVYYLSTQHHSTERHLYSVSYSTFAVTPLVDDTVAAYWSASFSANSGYYILTYGGPDVPYQELYTTNSTKPLRTITDNAKVLEQIKDYALPNITYFELPLPSGETLNVMQRLPPGFSPDKKYPILFTPYGGPGAQEVTKRWQALNFKAYVASDSELEYVTWTVDNRGTGFKGRKFRSAVTRQLGLLEAEDQIYAAQQAANIPWIDADHIGIWGWSFGGYLTSKVLEKDSGAFTLGVITAPVSDWRFYDSMYTERYMKTLSTNEEGYETSAVRKTDGFKNVEGGFLIQHGTGDDNVHFQNSAALVDLLMGDGVSPEKLHSQWFTDSDHGISYHGGGVFLYKQLARKLYQEKNRQTQVLMHQWTKKDLEE
Percent activity relative to 37iC. ([1]; 37 C): 100%
Percent activity relative to 37iC. ([1]; 45 C): 103%
Percent activity relative to 37iC. ([1]; 55 C): 103%
Percent activity relative to 37iC. ([1]; 65 C): 92.5%
Percent activity relative to 37iC. ([1]; 70 C): 37.7%
Percent activity relative to 37iC. ([1]; 75 C): 0.7%
activity retained ([1]; after a 20 minute incubation at 65 C, pH 7.5): 90%
pH of optimal activity ([2]; Ala-Pro-pNA as substrate): ~8.7
pH range over which activity toward Ala-Pro-pNA was possessed ([2]; measured pH range): 4.35 to 9.83
Average Activty ([2]; pH 4.35): 8.75 mOD/min
Avg. Activity-Background ([2]; pH 4.35): 8.75 mOD/min
Relative Activty ([2]; pH 4.35, relative to pH 8.71): 0.023
Average Activty ([2]; pH 4.87): 32.5 mOD/min
Avg. Activity-Background ([2]; pH 4.87): 32.5 mOD/min
Relative Activty ([2]; pH 4.87, relative to pH 8.71): 0.088
Average Activty ([2]; pH 5.36): 75.75 mOD/min
Avg. Activity-Background ([2]; pH 5.36): 75.75 mOD/min
Relative Activty ([2]; pH 5.36, relative to pH 8.71): 0.20
Average Activty ([2]; pH 5.86): 113.8 mOD/min
Avg. Activity-Background ([2]; pH 5.86): 113.8 mOD/min
Relative Activty ([2]; pH 5.86, relative to pH 8.71): 0.307
Average Activty ([2]; pH 6.38): 135.48 mOD/min
Avg. Activity-Background ([2]; pH 6.38): 135.48 mOD/min
Relative Activty ([2]; pH 6.38, relative to pH 8.71): 0.365
Average Activty ([2]; pH 6.85): 168.45 mOD/min
Avg. Activity-Background ([2]; pH 6.85): 166.45 mOD/min
Relative Activty ([2]; pH 6.85, relative to pH 8.71): 0.45
Average Activty ([2]; pH 7.2): 188.86 mOD/min
Avg. Activity-Background ([2]; pH 7.2): 186.86 mOD/min
Relative Activty ([2]; pH 7.2, relative to pH 8.71): 0.503
Average Activty ([2]; pH 7.51): 230.97 mOD/min
Avg. Activity-Background ([2]; pH 7.51): 227.97 mOD/min
Relative Activty ([2]; pH 7.51, relative to pH 8.71): 0.615
Average Activty ([2]; pH 7.97): 308.52 mOD/min
Avg. Activity-Background ([2]; pH 7.97): 302.72 mOD/min
Relative Activty ([2]; pH 7.97, relative to pH 8.71): 0.817
Relative Activty ([2]; pH 8.71): 1
Average Activty ([2]; pH 8.71): 383.15 mOD/min
Avg. Activity-Background ([2]; pH 8.71): 370.65 mOD/min
Average Activty ([2]; pH 9.32): 247.68 mOD/min
Avg. Activity-Background ([2]; pH 9.32): 217.88 mOD/min
Relative Activty ([2]; pH 9.32, relative to pH 8.71): 0.588
Average Activty ([2]; pH 9.83): 171 mOD/min
Avg. Activity-Background ([2]; pH 9.83): 97 mOD/min
Relative Activty ([2]; pH 9.83, relative to pH 8.71): 0.261
